In this experiment the target is SARS-CoV-2 PreS Spike ECD protein, biotinylated via a C-terminal Avi tag (SARS-CoV-2, Wuhan wild type, K986P | V987P | 682-685 RRAR to GSAS, biotin on the Avi tag). Kind of experiment: SPR. The note with it: both partners purified.

B1: 7A9 VHH (VHH)
VHH: QVQLVESGGGLVQAGGSLRLSCSASGGTASRSAMGWFRQAPGKEREFVAGISRRNSGSTYVADSYEDSVKGRFTISRDNAKNTIYLQMNSLKPEDTAVYYCAAEPTLGWYVPRRSVEYEYWGQGTQVTVSS
notes: also called VHH 7A9; 7A9 VHH monomer; source: ExpiCHO, transiently transfected, purified
In general, Kd refers to the concentration at which binding is half-saturated. Lower therefore signals tighter binding. B1 registered a Kd of 0.22 nM.

The values above are taken from publication PMC10444775 (Scientific Reports, 2023).
